Assay [1] deals with T1, purified I-Ed class II glycoprotein (Mus musculus, UniProt P01904+P01915).
T1 sequence (P01904 26-255): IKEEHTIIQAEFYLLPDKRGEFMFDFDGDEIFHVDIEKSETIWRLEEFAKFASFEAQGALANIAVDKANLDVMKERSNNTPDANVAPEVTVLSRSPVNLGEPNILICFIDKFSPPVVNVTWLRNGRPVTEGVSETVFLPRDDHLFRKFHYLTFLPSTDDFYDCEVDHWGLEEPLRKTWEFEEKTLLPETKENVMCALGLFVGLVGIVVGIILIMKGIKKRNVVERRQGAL
T1 sequence (P01915 27-264 limits assumed): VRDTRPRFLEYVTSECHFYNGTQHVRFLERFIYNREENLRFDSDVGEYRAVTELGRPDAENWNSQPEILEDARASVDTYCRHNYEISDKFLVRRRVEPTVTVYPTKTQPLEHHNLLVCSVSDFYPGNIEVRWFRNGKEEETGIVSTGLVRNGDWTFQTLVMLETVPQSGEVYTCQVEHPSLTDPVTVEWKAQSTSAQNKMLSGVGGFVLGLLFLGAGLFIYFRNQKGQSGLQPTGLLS
The format is binding.

The subject of assay [2] is purified I-Ad class II glycoprotein. The assay is classed as binding, mouse. To be noted: immunoassay.
The target of assay [3] is I-Ed class II MHC glycoprotein, purified (mouse (endogenous in A20 B lymphoma)). Put plainly: ELISA.

Side chains are listed from the residue outwards. Ends that are not written are not given here. * marks the point of attachment. Biotin = O=C1N[C@H]2[C@H](CS[C@H]2CCCCC(=O)*)N1; Ahx = NCCCCCC(=O)O

In general, Kd refers to the free concentration of one partner at which half of the binding sites on the other are occupied at equilibrium, for simple one-to-one binding. Read a high Kd as weaker binding.

For the molecule “FISEAIIHVLHSR [Myo(106-118), reference compound]”, in assay [1] (2 μM biotin-HEL(104-120), 24 h, at higher competitor concentrations), the “inhibition of binding of biotin-HEL(104-120) to I-Ed by unlabeled peptide” value is on record as “partially inhibited”.
As for “biotin-Myo(106-118): Myo(106-118) biotinylated with biotin-amidocaproate N-hydroxysuccinimide ester at the free α amino group ({Biotin-Ahx}-FISEAIIHVLHSR)”, in assay [1] (40 h at various pHs, 2 μM biotin-HEL(104-120) or 10 μM biotin-Myo(106-118)), the “optimum pH of binding to I-Ed” value is given as “more acidic pH”. For the same molecule, the “binding to I-Ed (in words)” value in assay [1] (immunoassay) is on record as “weakly”. Also, the “binding to I-Ad (in words)” value in assay [2] is “binds well”.
The molecule {Biotin-Ahx}-GMNAWVAWRNRCK([Ahx-Biotin])GTDVY [biotin-HEL(104-120)] came in with a Kd in assay [3] of 2330 nM.
